# Measurements taken from the DeepSol protein solubility set.
# Assay: soluble on expression in E. coli; label from the status in PepcDB or PDB records
row,Sequence,soluble on expression in E. coli
1,MSTKSIATSSTASSSSSHHQEHTVTELIMFFTSEEPPEPEPFSRSTEKSGIRTSKVITRTITISAETKLKMDLLEEQRREKRVKLEIEKSRIRAENLQRMQEISSEPKTRGSKRSLMRRAAKRTKGRISSLLIRDSSVDSGSITDKALKDKKRGLSLEWEVKDQGRFAESFSDSRLMEMFQHPSGMPIEPDVMMEGYLYKRSSNAFKTWNRRWFQIKDKQLLYSHRSTDLEPATIMEENLRICLVRPAPSNIDRIGCFELVTPTRIHLLQADSESLCQDWMRALQRTILALHEGDSVDVASTSPRNKTTSMSSGVTLTSANAISPLSNAMDVTKGRSVSDPASTYTSANTSSISTAAGFSSSTTAFEQVRRVPGNEVCADCGSPAPKWVSINLGVVLCIECSGAHRSLGVQTSKVRSLCMDSIDNELRDVLLALGNRQVNEIFLAHLPPADSIVPPQINEKSARPAREAWIKAKYVERRFAVAEDTRARSSATNRQEHLKHKTSIGGNSSSNGVNRSSSYADVQDAESGGLLDADPWSADLSVPVPTASKRLSACGSDTNLDAIGSSSIDTKTVEWDSVKEACECGDLLALMTAYAQGFDLNALHNGTTALHIATRNGQTAAVEFLLLNGAKINMLDEKLNTPLHLAAKEGHTLPVCQLLKRGADSNLANVDSKTPLDIAMECTHADIVTLFRVTIMRNDFNADFNNPMDETVEAVISDIARRAATEKEQKKTESLKSTSDI,not soluble
2,MCFTKKSTKTPPEPISKDSADKKKKTTIKKGKKFPMMNMIVKNKKNEVQVEKKPEEVPEQNKSVKDQTKKEEVKVVEEDKVEKKVEQKKPIINRPNCVAINPRSATSGKKNKYKFKYGQIDQQELSINNDKTEYLENAQLTKLMSHADVRALMGGQFAQGENADTNNCQDTVEEVDSEMLEIAFSPLLAVIPREDERVYGAFVHPTEQKKNAEA,soluble
3,MEVIRSQKRTVSNDVVSTPTLPLYLTAPHMEVRLEEFELFAIDRLRVLKGVSDGLARARNPNEMDDLVETLWKEHMRLSNVSEMINKDIISHFVLRLVYCRSDELKKWFLSMETALFRHRFRLKKIEEQRAIVGEFGLPYKAVIGAELESLKERLGLVARSHGQISSDVENIYYKVPFEEVPDLVASRRVLLQKGFAFVAGTQLVSLVVTQFRSHLSKALILTNRKWTTTIREREKDRLTPIVEALSTSYLGPDYSQSNEYADISLKDIDQVSKSSFPLCMRHLFEKLREDHHLKHGGRMQLGLFLKLDDALAFWREEFTKKVGSERFDKEYAYAIRHNYGKEGKRTDYTPYACSKIITSAPGAGDHHGCPYRHFSEDNLKAALSRMGLSSRGMEDVMDKVRNRHYQLACTLTFEAVYGTSCDTGINHPNQYFEESQKILKSKTPAAPV,soluble
4,MGSDKIHHHHHHMKQKLRLIQRRTVHYLLVVTYWISKFFPVQTKKVVFATYRSDKLVDNFRAVYDELESRELGFQYVFLLKRFPQNLIGQIKYVFHMMRATYELATARYFIIDDYYYPVYVSKLRKGTEVIQLWHACGAFKKFGYSVLDKSYSPDDDYLKMVAIHRNYSKVYVSGEACIGPFAEAFGMDSTRIHPLGVPRTDQLLNRERQVQIEHKLYDRYPEWRSKKLILLAPTFRGNGQTTAHYDQELDFQQFREQLGPDHILLLRMHPFVLNRPVVPAEFSNQIIDMTDYPDINDLMQVADILVTDYSSVIFEFALLKKPIILLVNDLNAYREERDFYFPYESFVPGPIVSSFNDVISWIKAGQFEPEQIEDFAARFFTYQDGLATKRIVNHILTGALPDAPMRPEERKTV,not soluble
5,MASSAVSLQSISMTTLNNLSCNQQFHRSSLLGSSKSFQNLGISSNGSDFSYPSSFTAKKNLTASRALSQNGNIENPRPSKVQELSVYEINELDRHSPKILKNAFSLMFGLGDLVPFTNKLYTGDLKKRVGITAGLCVVIEHVPEKKGERFEATYSFYFGDYGHLSVQGPYLTYEDSFLAITGGAGIFEGAYGQVKLQQLVYPTKLFYTFYLKGLANDLPLELTGTPVPPSKDIEPAPEAKALEPSGVISNYTN,soluble
6,MQSSNGEHHQQKQTPYFMNAPCDPALLALAQQTFLGFQPQKNMYQHGFPPMLPHRNLIPSLAAAIPEMDKLMLEEPIEAGSMPYRRATNKNISVSDDSFNNMHRSSSSSQYRRHSAQWETMTDDERESVQRQKRKEEAFKTALCDAFKRSGSCPYGEACRFAHGENELRMPSQPRGKAHPKYKTQLCDKFSNFGQCPYGPRCQFIHKLKKGLPLSEYNRALQEGEISPARDDEITNPDESSSQVEDLSELHHRQHQQQQQYQQRYRRPPFNNFHDMSDSGYSAPRRRLHHQFEHLGSEQQQQQQQQTPAPKIVYPSMQVVNIEMATGDGPKRSDNHHYHHHHHQRRHIPAPPSTGPLSSLIDQADYEASMASGKMFGKPENIRTYGAMIRANEEHVERNQTGVVKKERATVLPKRDLSLIREEDTLLVDGSHLNMTSSAILPAHQIPSTTTTSTSSPVQEQPWYEKIFGKMTMIQEESSMGGEDDDAHEDHYSR,not soluble
7,VRILVTGGVRSGKSTHAEALLGDAADVVYVAPGRPAAGSDPDWDARVALHRARRPPTWLTVETADVATALSEARSPVLVDCLGTWLTAIMDGEALWSAATADVYAVLEARLDGLCAALTGLPTAIVVTNEVGLGVVPSHSSGVLFRDLLGTINRRVAAVCDEVHLVIAGRVLKL,soluble
8,MSTTKKGDTYNEAWVKDTNGFDILMGQFAHNIENIWGFKEVVIAGPKDYVKYTDQYQTRSHINFDDGTITIETIAGTEPAAHLRRAIIKTLLMGDDPSSVDLYSDVDDITISKEPFLYGQVVDNTGQPIRWEGRASNFADYLLKNRLKSRSNGLRIIYSVTINMVPNHLDKRAHKYLGMVRQASRKYGVDESLILAIMQTESSFNPYAVSRSDALGLMQVVQHTAGKDVFRSQGKSGTPSRSFLFDPASNIDTGTAYLAMLNNVYLGGIDNPTSRRYAVITAYNGGAGSVLRVFSNDKIQAANIINTMTPGDVYQTLTTRHPSAESRRYLYKVNTAQKSYRRRLEHHHHHH,soluble
9,MSLKFAVLVFPGSNCDRDMYNAAIKSGVDAAYVDYRETTLDGFDGVLIPGGFSFGDYLRSGAMASVAPIIKEVKRFAKEGKPVLGVCNGFQILTEIGLLPGALLHNDSHLFISRNETLKITNNQTPFTHLYVKNENVVYPVAHGEGHYYCTDEIYRELNDNNQIILKYTNNPNGSYEDIAGIVNKEGNVCGMMPHPERALETLLGTNSGVKLFESMVKSWREQNEGHHHHHH,soluble
10,PVDINAATHTIVRGDTVYNISKRYHISQDDFRAWNGMTDNTLSIGQIVKVKPAGYAAPKAAAVKSRPAVPAAAQPPVQSAPVDINAATHTIVRGDTVYNISKRYHISQDDFRAWNGMTDNMLSIGQIVKVKPAGYAAPKTAAVESRPAVPAAVQTPVKPAAQPPVQSAPQPAAPAAENKAVPAPAPQSPAASPSGTRSVGGIVWQRPTQGKVVADF,not soluble
11,MQLYVVLCFLVLLGLSAGQMTFTDQWTKKRATLHKQLPVVTPEEPICPSDRVQAVFEQLDQLQKAQQRLTEYLASCAYPVEVPQKAEKM,not soluble
12,MESIKVVIVGGGQAGIAMGYYLVKEKVPFMILDANEQVGDSWRNRYDSLVLFTPRTYSQLPGFPMDGAPNGFPTKDEMASYLQQYANHFNLPMRHHTKVDRVTRQQNGRFHLKTTNGWIEAEKVVIATGAFQKPYLPPVLDSANNEMSQVHSSAYRNPAQIPGKSVLVVGGGNSGAQIAVELAKERNVTMAISHPFRFLPLKLLNKSMFSWLEWGGLLYAGIDTTRGRWFKKQKDPIFGKELKSLIKKGQIHLKPRVMNVQGKEVEFADHSRLSFDRIIWSTGFSPSYEWIDIDGVIATNGWPIHNRGITNIRGLYFLGLPWQYQRGSALVCGVGRDAEYLVPFIKHGDK,not soluble
13,AAGVLKHRRRKEKAQRKLVGMQANLDRLSDLTAELGKQLKPLARQAEAARKAATIQSEVRDARLRIAGYQIHSLASSLKDAQSHHDSIAEKLEEVTEQLEEATGVQLEAEDALGKISPEAEKSQQLWFELSSLAERVSATQRIATDRAKNFSEVRYSGPDPDELAEKAARADAEYAEAEETVDILSERLESIQDNVAELEEQAQRADREHLAQVRAIADRREGIVRLLTLESQQREHIVAAEAELERLREAESDIAAQARSKDAEHKDCQTQAQEARSRIEPLSQSRDAALNESRAADSRLEQLREQQSDIDKSISRLESKIETLESHRMTRNAVKQWEKLQSFYGVDRYIIPQRGMEKAIAAALGPVAEALVGETTTAELQALDIESLARHIVITPGEDHDWRLATDLPHYASWLLDYVELAPEVSSTIVQILADVVLVDSYEHGREVVNHDPRLRAVCVDGTMWGHGWVAVGSAERSAVEIAAEIDQAEKDLEVARLQRVELAGTLNGAHQAADEARVRSAQAQAVCREQEIVVENFSRRVEAVSHEAEARKQELRRHALRVQEAQDRLNQLRQLWEETSDRLSRVEEDNSEEEPSTSERDKAAAALSHMRSMEVEARLSLRTAQDKAEHIRGRGDGLRRQAEYERQARARHDQAVARQRRKAEIASVVAQQCLVVAERVDDALARATQWKENAIAQRGVISARVSAAKDTVSALRTNANRLTEKSHAAELSLGQAQVRLEEAHEKIVEQLGIAISDLMRDYTPHEGFDIGAQRVRLKNAEKDLNALGKVNPLALEEFKALEERYEFLSTQLADVEQARRDLHGVINDVDTKILQ,not soluble
14,MAALAGDEAWRCRGCGTYVPLSQRLYRTANEAWHGSCFRCSECQESLTNWYYEKDGKLYCHKDYWAKFGEFCHGCSLLMTGPAMVAGEFKYHPECFACMSCKVIIEDGDAYALVQHATLYCGKCHNEVVLAPMFERLSTESVQDQLPYSVTLISMPATTECRRGFSVTVESASSNYATTVQVKEVNRMHISPNNRNAIHPGDRILEINGTPVRTLRVEEVEDAIKQTSQTLQLLIEHDPVPQRLDQLRLDARLPPHMQSTGHTLMLSTLDTKENQEGTLRRRSLRRSNSISKSPGPSSPKEPLLLSRDISRSESLRCSSSYSQQIFRPCDLIHGEVLGKGFFGQAIKVTHKATGKVMVMKELIRCDEETQKTFLTEVKVMRSLDHPNVLKFIGVLYKDKKLNLLTEYIEGGTLKDFLRSVDPFPWQQKVRFAKGISSGMAYLHSMCIIHRDLNSHNCLIKLDKTVVVADFGLSRLIVEERKRPPVEKATTKKRTLRKSDRKKRYTVVGNPYWMAPEMLNGKSYDETVDVFSFGIVLCEIIGQVYADPDCLPRTLDFGLNVKLFWEKFVPTDCPPAFFPLAAICCKLEPESRPAFSKLEDSFEALSLFLGELAIPLPAELEDLDHTVSMEYGLTRDSPP,soluble
15,FMFKHIIARTPARSLVDGLTSSHLGKPDYAKALEQHNAYIRALQTCDVDITLLPPDERFPDSVFVEDPVLCTSRCAIITRPGAESRRGETEIIEETVQRFYPGKVERIEAPGTVEAGDIMMVGDHFYIGESARTNAEGARQMIAILEKHGLSGSVVRLEKVLHLKTGLAYLEHNNLLAAGEFVSKPEFQDFNIIEIPEEESYAANCIWVNERVIMPAGYPRTREKIARLGYRVIEVDTSEYRKIDGGVSSMSLRF,soluble
16,MGSDKIHHHHHHMNDWDRLYDRAETLLSRLEGLLRADAPEPEWNAAAFRWRKTGRSGFIEPVRYPDSITFEALQSIGRQKSLVDQNTRQFVRHHPANNVLLTGARGTGKSSLVKAMLNKYAADGLRLIEVEKHHLVDLPEIVEKVYRRPERFILYCDDLSFESGEPGYKALKVVLDGSIATASENVLVYATSNRRHLMPEYRVDNQDTRHTGGEIHPSEAVEEKTSLSERFGLWISFYPFDQEQYLDIVARWLAYFGIDKMDDSIREEALRWALGRGSRNGRVAWQFARDRAGREKAGQKPADKTEFRAEQ,not soluble
